Source: article PMC5292753, “Structural analysis and evolution of specificity of the SUMO UFD E1-E2 interactions” (Scientific Reports, 2017)
Read-outs that look alike come from different tables or passages of the source.

What was measured:
[1] = molecular target: SUMO E2 (Ubc9) (Homo sapiens) (UniProt P63279); assay: NMR; conditions: cited from earlier work
[2] = molecular target: SUMO E2 (Ubc9) (Homo sapiens) (UniProt P63279); conditions: cited from earlier work
[3] = molecular target: T1, human SUMO E2 conjugating enzyme Ubc9, full length (human, UniProt P63279 1-158, lysines methylated (borane-dimethylamine complex and formaldehyde), only in the complex that was crystallised); assay: native gel or EMSA; native gel electrophoresis of human E1 UFD domain with Ubc9 (Supplementary Fig. S1); conditions: both partners purified
T1 construct: SUMO-conjugating enzyme Ubc9, human, full length; Cloned in pET28a; the His tag was removed with thrombin, so a few residues of the vector may remain at the N-terminus; The complex with the UFD was lysine-methylated after gel filtration and only then crystallised; also called hSUMO Ubc9; source: E. coli BL21(DE3) pLysS, purified (Ni-NTA, thrombin, Superdex75 gel filtration); not shown: His6, …
T1 sequence (P63279 whole entry, the tested form may be a part): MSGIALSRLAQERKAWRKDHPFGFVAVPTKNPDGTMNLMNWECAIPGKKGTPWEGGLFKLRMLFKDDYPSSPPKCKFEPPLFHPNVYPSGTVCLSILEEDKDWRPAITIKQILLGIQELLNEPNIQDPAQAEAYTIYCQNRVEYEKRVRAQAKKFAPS

Chain of SUMO E2 (Ubc9) (Homo sapiens) (P63279 2-158): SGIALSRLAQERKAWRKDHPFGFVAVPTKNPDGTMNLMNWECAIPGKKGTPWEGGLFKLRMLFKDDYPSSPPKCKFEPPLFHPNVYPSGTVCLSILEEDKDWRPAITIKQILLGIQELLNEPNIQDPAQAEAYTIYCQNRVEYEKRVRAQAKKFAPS

In the case of “SUMO E1 Cys domain Cys domain (from UniProt Q9UBT2)”, the Kd [1] is given as 87 µM.

For SUMO E1 UFD UFD (from UniProt Q9UBT2), the Kd [2] is given as 1.2 µM.

B1: human SUMO E1 Uba2 ubiquitin-fold domain (UFD), residues 447-547 (domain or fragment, UniProt Q9UBT2 447-547, looked up)
chain: KPEVTVRLNVHKVTVLTLQDKIVKEKFAMVAPDVQIEDGKGTILISSEEGETEANNHKKLSEFGIRNGSRLQADDFLQDYTLLINILHSEDLGKDVEFEVV
modifications: lysines methylated (borane-dimethylamine complex and formaldehyde), only in the complex that was crystallised
notes: designed from the structure of full-length human SAE1-SAE2 (PDB 1Y8Q); Cloned in pET28a; the His tag was removed with thrombin, so a few residues of the vector may remain at the N-terminus; The complex with Ubc9 was lysine-methylated after gel filtration and only then crystallised; the native gel and the gel filtration used the unmethylated protein; also called E1 UFD domain; HsUba2 UFD; source: …
B1: binds [3].
